The target in the test is T1, EGFR-ECD (extracellular domain of human epidermal growth factor receptor, 1-643) (Homo sapiens, UniProt P00533, N-linked oligosaccharides cleaved by endoglycosidase H).
T1 construct: human epidermal growth factor receptor, extracellular domain, residues 1-643 as printed; A TEV site between the ECD and the His-tag is implied by the cleavage; also called extracellular domain of human EGFR; human EGFR-ECD; source: HEK293S GnTI- cells, transient overexpression, secreted; purified (HisTrap, TEV cleavage of the His-tag, endoglycosidase H, HiTrap Q, SEC); not shown: His-tag, …
As to the kind of experiment: SPR; BIAcore 3000; EGFR-ECD immobilised on a CM5 chip by amine coupling; single-cycle kinetics with 50.0, 16.6, 5.55, 1.85 and 0.617 nM Fv or Fab; 30 ul/min, 60-s association, 120-s dissociation; 25 C; HBS-EP+ buffer; triplicate. The settings on record: both partners purified. On the technique in general: Surface plasmon resonance follows binding to a sensor surface in real time, without labels.

Broadly, the Kd is the constant that tells how readily two partners part at equilibrium. Read a low Kd as tighter binding. For orientation: koff means a measure of how fast the partners let go of each other. A high value points to a short-lived complex. One may read the kon as the second-order rate constant of association. Low readings indicate slower complex formation, high ones faster complex formation.

B1: 059-152-Fv (Fv fragment of the fully human anti-EGFR antibody 059-152) (other)
VH: QVQLQESGPGLVKPSETLSLTCTVSGGSISSSSYYWGWIRQPPGKGLEWIGSIYYSGSTYYNPSLKSRVTISVDTSKNQFSLKLSSVTAADTAVYYCARLPMVTMSFDYWGQGTLVTVSS
VL: SYVLTQPPSVSVAPGKTARITCGGNNIGSKSVHWYQQKPGQAPVLVIYYDSDRPSGIPERFSGSNSGNTATLTISRVEAGDEADYYCQVWDSSSDHVVFGGGTKLTVL
notes: also in PDB 5XWD; VL also in PDB 5XWD; Fv: VH and VL synthesised together as two separate chains; source: cell-free synthesis (E. coli S30 extract, dialysis mode, 0.2 mg/ml DsbC), purified (HisTrap, TEV cleavage, SEC); not shown: N11-tag, N-terminal, cleaved
For B1, the Kd came out at 5.9 ± 0.1 nM, the koff amounted to 0.0147 s⁻¹ and the kon is 2.49e+06 M⁻¹ s⁻¹.

B2: AzF-incorporated 059-152-Fab (Fab, V domains shown)
VH: QVQLQESGPGLVKPSETLSLTCTVSGGSISSSSYYWGWIRQPPGKGLEWIGSIYYSGSTYYNPSLKSRVTISVDTSKNQFSLKLSSVTAADTAVYYCARLPMVTMSFDYWGQGTLVTVSS
VL: SYVLTQPPSVSVAPGKTARITCGGNNIGSKSVHWYQQKPGQAPVLVIYYDSDRPSGIPERFSGSNSGNTATLTISRVEAGDEADYYCQVWDSSSDHVVFGGGTKLTVL
notes: also in PDB 5XWD; linker inserted just before the stop codon, followed by the amber codon that is read as AzF; AzF is the last residue of the VHCH1 chain, after the linker; also called AzF-incorporated Fab; not shown: N11-tag, N-terminal, cleaved
Molecule B2 registered a Kd of 7 ± 0.1 nM, a koff of 0.0125 s⁻¹ and a kon of 1.78e+06 M⁻¹ s⁻¹.

B3: AzF-incorporated 059-152-Fv (other, human)
VH: QVQLQESGPGLVKPSETLSLTCTVSGGSISSSSYYWGWIRQPPGKGLEWIGSIYYSGSTYYNPSLKSRVTISVDTSKNQFSLKLSSVTAADTAVYYCARLPMVTMSFDYWGQGTLVTVSS
VL: SYVLTQPPSVSVAPGKTARITCGGNNIGSKSVHWYQQKPGQAPVLVIYYDSDRPSGIPERFSGSNSGNTATLTISRVEAGDEADYYCQVWDSSSDHVVFGGGTKLTVL
notes: also in PDB 5XWD; linker inserted just before the stop codon, followed by the amber codon that is read as AzF; Fv; AzF is the last residue of the VH chain, after the linker; also called AzF-incorporated Fv; not shown: N11-tag, N-terminal, cleaved
The molecule B3 showed a dissociation constant Kd of 5.8 ± 0.2 nM, a koff of 0.0137 s⁻¹ and a kon of 2.36e+06 M⁻¹ s⁻¹.

B4: Alexa-488 conjugated 059-152-Fab (Fab, V domains shown)
VH: QVQLQESGPGLVKPSETLSLTCTVSGGSISSSSYYWGWIRQPPGKGLEWIGSIYYSGSTYYNPSLKSRVTISVDTSKNQFSLKLSSVTAADTAVYYCARLPMVTMSFDYWGQGTLVTVSS
VL: SYVLTQPPSVSVAPGKTARITCGGNNIGSKSVHWYQQKPGQAPVLVIYYDSDRPSGIPERFSGSNSGNTATLTISRVEAGDEADYYCQVWDSSSDHVVFGGGTKLTVL
notes: also in PDB 5XWD; linker inserted just before the stop codon, followed by the amber codon that is read as AzF; m6 after copper-free click chemistry; also called Alexa-488 conjugated Fab; not shown: N11-tag, N-terminal, cleaved
On to B4, for which the Kd turned out to be 8.1 ± 0.2 nM, the koff came to 0.0133 s⁻¹ and the kon came out at 1.67e+06 M⁻¹ s⁻¹.

B5: 059-152-Fab (Fab fragment of the fully human anti-EGFR antibody 059-152) (Fab, V domains shown)
VH: QVQLQESGPGLVKPSETLSLTCTVSGGSISSSSYYWGWIRQPPGKGLEWIGSIYYSGSTYYNPSLKSRVTISVDTSKNQFSLKLSSVTAADTAVYYCARLPMVTMSFDYWGQGTLVTVSS
VL: SYVLTQPPSVSVAPGKTARITCGGNNIGSKSVHWYQQKPGQAPVLVIYYDSDRPSGIPERFSGSNSGNTATLTISRVEAGDEADYYCQVWDSSSDHVVFGGGTKLTVL
notes: also in PDB 5XWD; its VL part is in PDB 5XWD; source: cell-free synthesis (E. coli S30 extract, dialysis mode, 0.8 mg/ml DsbC), purified (HisTrap, TEV cleavage, SEC); not shown: N11-tag, N-terminal, cleaved
B5: the Kd came to 7.7 ± 0.1 nM, the koff stood at 0.015 s⁻¹ and the kon amounted to 1.94e+06 M⁻¹ s⁻¹.

B6: Alexa-488 conjugated 059-152-Fv (other, human)
VH: QVQLQESGPGLVKPSETLSLTCTVSGGSISSSSYYWGWIRQPPGKGLEWIGSIYYSGSTYYNPSLKSRVTISVDTSKNQFSLKLSSVTAADTAVYYCARLPMVTMSFDYWGQGTLVTVSS
VL: SYVLTQPPSVSVAPGKTARITCGGNNIGSKSVHWYQQKPGQAPVLVIYYDSDRPSGIPERFSGSNSGNTATLTISRVEAGDEADYYCQVWDSSSDHVVFGGGTKLTVL
notes: also in PDB 5XWD; linker inserted just before the stop codon, followed by the amber codon that is read as AzF; Fv; m3 after copper-free click chemistry; also called Alexa-488 conjugated Fv; not shown: N11-tag, N-terminal, cleaved
In turn, B6 gave a Kd of 6.1 ± 0.1 nM, a koff of 0.0154 s⁻¹ and a kon of 2.52e+06 M⁻¹ s⁻¹.
